Experimental data reported in patent publication US20130071410A1 (published 2013).

Target: T1, human CGRP receptor (CRLR + RAMP1) (human, UniProt Q16602 23-461; O60894 27-148)
T1 construct: also called hCGRP R; huCGRP R
Experiment: FACS staining of transfected cells

T1 sequence (Q16602 23-461 limits assumed, chain 1 of 2): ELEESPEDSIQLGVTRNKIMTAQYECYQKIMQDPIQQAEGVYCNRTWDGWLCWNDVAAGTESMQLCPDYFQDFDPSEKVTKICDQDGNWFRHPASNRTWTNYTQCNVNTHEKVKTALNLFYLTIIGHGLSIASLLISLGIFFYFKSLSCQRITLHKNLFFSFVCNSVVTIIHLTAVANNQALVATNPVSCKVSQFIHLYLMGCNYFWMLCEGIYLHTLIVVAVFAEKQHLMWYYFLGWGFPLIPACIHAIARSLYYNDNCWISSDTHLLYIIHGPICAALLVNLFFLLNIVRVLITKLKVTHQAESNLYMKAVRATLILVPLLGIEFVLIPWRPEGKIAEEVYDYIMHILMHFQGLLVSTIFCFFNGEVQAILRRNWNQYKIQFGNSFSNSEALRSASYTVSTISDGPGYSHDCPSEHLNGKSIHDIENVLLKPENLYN
T1 sequence (O60894 27-148 limits assumed, chain 2 of 2): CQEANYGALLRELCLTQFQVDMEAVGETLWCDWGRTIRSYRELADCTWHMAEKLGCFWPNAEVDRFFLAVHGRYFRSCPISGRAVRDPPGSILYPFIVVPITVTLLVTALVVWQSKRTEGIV

binding result: binds
B1: Alexa 647-labeled CGRP8-37 peptide analog (peptide)
peptide: Ac-WVTHRLAGLLSRSGGVVRCNFVPTDVGPFAF-NH2
modifications: also: Alexa 647 label, site not given here
notes: also called Alexa647-CGRP8-37
